Data set [1] addresses POTH1 (full-length) in pBridge, fused to the GAL4 DNA-binding domain (Solanum tuberosum). Kind of data set: yeast two-hybrid, quantitative beta-galactosidase assay; reference: full-length construct StBEL-05 (pAD-05).
Data set [2] addresses T1, POTH1 (Solanum tuberosum).
T1 chain: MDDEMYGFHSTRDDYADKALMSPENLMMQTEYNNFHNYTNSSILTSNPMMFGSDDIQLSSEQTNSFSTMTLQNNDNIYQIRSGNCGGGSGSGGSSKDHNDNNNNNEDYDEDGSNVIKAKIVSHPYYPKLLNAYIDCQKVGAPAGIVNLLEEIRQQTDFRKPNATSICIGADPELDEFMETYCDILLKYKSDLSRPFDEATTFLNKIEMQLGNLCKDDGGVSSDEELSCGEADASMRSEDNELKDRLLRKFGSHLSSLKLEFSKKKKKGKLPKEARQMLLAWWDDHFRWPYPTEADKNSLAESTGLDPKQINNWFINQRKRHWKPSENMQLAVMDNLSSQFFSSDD
In words: cell_activity. The conditions noted are these: tobacco protoplasts, GUS reporter.

The target of data set [3] is T2, StBEL-05/POTH1 heterodimer (Solanum tuberosum).
T2 chain 1: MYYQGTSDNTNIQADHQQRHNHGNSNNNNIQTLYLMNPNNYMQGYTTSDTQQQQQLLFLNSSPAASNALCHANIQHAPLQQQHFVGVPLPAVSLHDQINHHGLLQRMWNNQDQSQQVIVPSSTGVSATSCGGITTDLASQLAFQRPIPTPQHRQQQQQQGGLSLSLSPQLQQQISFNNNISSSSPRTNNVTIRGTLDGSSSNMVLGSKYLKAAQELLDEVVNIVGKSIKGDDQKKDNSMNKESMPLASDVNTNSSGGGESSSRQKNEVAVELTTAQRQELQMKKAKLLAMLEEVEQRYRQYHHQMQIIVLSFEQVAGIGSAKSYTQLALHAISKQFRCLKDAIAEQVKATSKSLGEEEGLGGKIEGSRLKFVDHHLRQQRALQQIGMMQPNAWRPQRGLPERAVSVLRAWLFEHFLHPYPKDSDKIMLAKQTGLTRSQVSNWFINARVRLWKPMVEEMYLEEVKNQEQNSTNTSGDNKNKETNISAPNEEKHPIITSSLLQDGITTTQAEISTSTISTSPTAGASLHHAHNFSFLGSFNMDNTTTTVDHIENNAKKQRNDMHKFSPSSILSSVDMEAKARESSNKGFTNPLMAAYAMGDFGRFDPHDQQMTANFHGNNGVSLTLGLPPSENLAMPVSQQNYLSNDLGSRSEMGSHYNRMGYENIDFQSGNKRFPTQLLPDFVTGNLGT
T2 chain 2: T1 chain
Kind of data set: cell_activity. The conditions noted are these: tobacco protoplasts, GUS reporter.

For data set [4], the target named is T3, StBEL-05 (Solanum tuberosum).
T3 chain: T2 chain 1
Kind of data set: cell_activity. The conditions noted are these: tobacco protoplasts, GUS reporter.

The target of data set [5] is T4, GAD protein alone (GAL4 activation domain) (UniProt P04386 768-881, limits assumed).
T4 construct: domain: GAD; Negative control of the immunoprecipitation assay
T4 sequence (looked up): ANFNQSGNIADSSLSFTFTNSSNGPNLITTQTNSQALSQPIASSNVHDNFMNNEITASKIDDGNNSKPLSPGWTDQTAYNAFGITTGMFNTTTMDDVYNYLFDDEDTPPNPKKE
In words: immunoprecipitation of in vitro translated 35S-labelled proteins with anti-GAD antibodies. The protocol:
(§1) In vitro binding experiments were performed as described by Ni et al., "PIF3, a Phytochrome-Interacting Factor Necessary for Normal Photoinduced Signal Transduction, is a Novel Basic Helix-Loop-Helix Protein," *Cell* 95:657-667 (1998), which is hereby incorporated by reference in its entirety. The full-length sequence for POTH1 was cloned into a pET17b/GAD fusion cassette and transcribed under the control of the T7 promoter. The BEL cDNAs were cloned into pGEM11Z vectors and were transcribed under the control of the T7 promoter. ^35S-methionine labeled bait and prey proteins were synthesized using the TnT in vitro transcription-translation kit (Promega) according to the manufacturer's protocols. Each 50 µl TnT reaction contained 2.0 µg of template plasmid DNA and […] (20 µCi) of labeled ^35S-methionine. The POTH1:GAD/BEL complex was immunoprecipitated with anti-GAD antibodies (Santa Cruz Biotechnology, CA). The proteins from the pellet (one-half the fraction) and for the prey (one-fourth of the reaction volume) were resolved on a 10% SDS-PAGE gel and visualized by autoradiography.

Data set [6] has as its target T5, GAD:POTH1 fusion protein (full-length POTH1 fused to the GAL4 activation domain) (Solanum tuberosum, 35S-methionine labelled (in vitro translation)).
T5 construct: In vitro transcribed/translated bait of the immunoprecipitation assay; no 35S label there; also called POTH1:GAD
T5 chain: T1 chain
Kind of data set: co-immunoprecipitation of in vitro translated 35S-labelled proteins with anti-GAD antibodies, SDS-PAGE and autoradiography. The protocol: as §1

Data set [7] deals with T5, GAD:POTH1 fusion protein (full-length …). Kind of data set: immunoprecipitation of in vitro transcribed/translated proteins. The procedure:
as §1

In data set [8] the target is T6, pBHD9, first amino-terminal 114 aa of POTH1 in pBridge (GAL4 DNA-binding domain fusion) (Solanum tuberosum).
T6 construct: also called pBDH9
In words: in vitro binding protocol (immunoprecipitation of in vitro translated proteins).

Data set [9] deals with T7, StBEL-05 in pBridge (GAL4 DNA-binding domain fusion) (Solanum tuberosum).
T7 construct: Range derived as for m2
In words: yeast two-hybrid, reciprocal orientation.

The target in data set [10] is T2, StBEL-05/POTH1 heterodimer. Kind of data set: EMSA; deduced consensus TGA(C/G)(T/A)TGAC. The conditions noted are these: tags: GST cleaved by Factor Xa. For orientation: In EMSA bound probe runs differently from free probe, usually more slowly.
For data set [11], the target named is T1, POTH1. Kind of data set: EMSA. The conditions noted are these: tags: GST fusion from pGEX-5X-2, GST cleaved by Factor Xa.
Data set [12] has as its target T3, StBEL-05. In words: EMSA. The conditions noted are these: tags: GST fusion from pGEX-5X-2, GST cleaved by Factor Xa.

“pAD5-1, StBEL-05 deletion construct in pGAD (GAL4 activation domain fusion)” yielded a decrease in the induction of the lacZ marker (beta-galactosidase activity) relative to the full-length construct, StBEL-05 in data set [1] of 55%.

On to ga20ox1 promoter reporter (980 bp), for which the activity was over 50 % repression with POTH1 [2], 80 % repression in data set [3] and over 50 % repression with StBEL-05 [4].

B1: StBEL-30 protein synthesized in vitro from pGEM11Z (other)
chain: MATYFPSPNNQRDADQTFQYFRQSLPESYSEASNAPENMMVFMNYSSSGAYSDMLTGTSQQQHNCIDIPSIGATPFNTSQQEILSNLGGSQMGIQDFSSWRDSRNEMLADNVFQVAQNVQGQGLSLSLGSNIPSGIGISHVQSQNPNQGGGFNMSFGDGDNSQPKEQRNADYFPPDNPGRDLDAMKGYNSPYGTSSIARTIPSSKYLKAAQYLLDEVVSVRKAIKEQNSKKELTKDSRESDVDSKNISSDTPANGGSNPHESKNNQSELSPTEKQEVQNKLAKLLSMLDEIDRRYRQYYHQMQIVVSSFDVVAGEGAAKPYTALALQTISRHFRCLRDAICDQIRASRRSLGEQDASENSKAIGISRLRFVDHHIRQQRALQQLGMMQQHAWRPQRGLPESSVSVLRAWLFEHFLHPYPKDSDKIMLARQTGLTRSQVSNWFINARVRLWKPMVEEMYKEEAGDAKIDSNSSSDVAPRLATKDSKVEERGELHQNAASEFEQYNSGQILESKSNHEADVEMEGASNAETQSQSGMENQTGEPLPAMDNCTLFQDAFVQSNDRFSEFGSFGSGNVLPNGVSLTLGLQQGEGSNLPMSIETHVSYVPLRADDMYSTAPTTMVPETAEFNCLDSGNRQQPFWLLPSAT
modifications: 35S-methionine labelled (in vitro translation)
notes: BEL cDNA cloned into pGEM11Z under the T7 promoter; also called p11Z-30
As for B1, the binding result in data set [5] is on record as “no binding”; in data set [6] it was “binds”.

B2: StBEL-13 protein synthesized in vitro from pGEM11Z (other)
chain: MVMGGGASSQQLGYAKNHTPNVAESMQLFLMNPQPRSPSPSPPNSTSSTLHMLLPNPSSTSTLQGFPNPAEGSFGQFITWGNGGASAATATHHLNAQNEIGGVNVVESQGLSLSLSSSLQHKAEELQMSGEAGGMMFFNQGGSSTSGQYRYKNLNMGGSGVSPNIHQVHVGYGSSLGVVNVLRNSKYAKAAQELLEEFCSVGRGKLKKTNNKAAANNPNTNPSGANNEASSKDVPTLSAADRIEHQRRKVKLLSMVDEVDRRYNHYCEQMQMVVNSFDLVMGFGTAVPYTALAQKAMSRHFRCLKDAIGAQLKQSCELLGEKDAGNSGLTKGETPRLKMLEQSLRQQRAFHQMGMMEQEAWRPQRGLPERSVNILRAWLFEHFLHPYPSDADKHLLARQTGLSRNQVSNWFINARVRLWKPMVEDMYQQEAKDEDGDGDEKSQSQNSGNNIIAQTPTPNSLTNTSSTNMTTTTAPTTTTALAAAETGTAATPITVTSSKRSQINATDSDPSLVAINSFSENQATFPTNIHDPDDCRRGNLSGDDGTTTHDHMGSTMIRFGTTAGDVSLTLGLRHAGNLPENTHFFG
modifications: 35S-methionine labelled (in vitro translation)
notes: BEL cDNA cloned into pGEM11Z under the T7 promoter; also called p11Z-13
Turning to B2, the binding result is “no binding” in data set [5] and “binds” in [7].

B3: StBEL-05 protein synthesized in vitro from pGEM11Z (other)
chain: T2 chain 1
modifications: 35S-methionine labelled (in vitro translation)
notes: BEL cDNA cloned into pGEM11Z under the T7 promoter; also called p11Z-5
On to B3, for which the binding result in data set [5] and in [8] was “no binding” in each case.

B4: pBHD9 construct (first 114 aa of POTH1) cloned into the pGAD vector (GAL4 activation domain fusion) (other, not shown: large carriers)
chain: MDDEMYGFHSTRDDYADKALMSPENLMMQTEYNNFHNYTNSSILTSNPMMFGSDDIQLSSEQTNSFSTMTLQNNDNIYQIRSGNCGGGSGSGGSSKDHNDNNNNNEDYDEDGSN
notes: also called pBDH9 construct in pGAD
As for B4, the binding result in data set [9] is recorded as “no binding”.

B5: P1 binding site oligo (dsDNA)
DNA 1: TTGACTTGAC
DNA 2: GTCAAGTCAA
With B5, the binding result (in data set [10]; in the data set with POTH1 [11]; with StBEL-05 [12]) was “binds” throughout.

The values are drawn from patent US7579150B1, “Mobile RNA acts as a signal to regulate plant growth and development” (Iowa State University Research Foundation, Inc., priority 2004, dated 2009).
